According to IntAct's records for PubMed 31515488:

B1: UBX domain-containing protein 2B (Homo sapiens), Q14CS0 (parent)
chain: MAEGGGPEPGEQERRSSGPRPPSARDLQLALAELYEDEVKCKSSKSNRPKATVFKSPRTPPQRFYSSEHEYSGLNIVRPSTGKIVNELFKEAREHGAVPLNEATRASGDDKSKSFTGGGYRLGSSFCKRSEYIYGENQLQDVQILLKLWSNGFSLDDGELRPYNEPTNAQFLESVKRGEIPLELQRLVHGGQVNLDMEDHQDQEYIKPRLRFKAFSGEGQKLGSLTPEIVSTPSSPEEEDKSILNAVVLIDDSVPTTKIQIRLADGSRLIQRFNSTHRILDVRNFIVQSRPEFAALDFILVTSFPNKELTDESLTLLEADILNTVLLQQLK
partner: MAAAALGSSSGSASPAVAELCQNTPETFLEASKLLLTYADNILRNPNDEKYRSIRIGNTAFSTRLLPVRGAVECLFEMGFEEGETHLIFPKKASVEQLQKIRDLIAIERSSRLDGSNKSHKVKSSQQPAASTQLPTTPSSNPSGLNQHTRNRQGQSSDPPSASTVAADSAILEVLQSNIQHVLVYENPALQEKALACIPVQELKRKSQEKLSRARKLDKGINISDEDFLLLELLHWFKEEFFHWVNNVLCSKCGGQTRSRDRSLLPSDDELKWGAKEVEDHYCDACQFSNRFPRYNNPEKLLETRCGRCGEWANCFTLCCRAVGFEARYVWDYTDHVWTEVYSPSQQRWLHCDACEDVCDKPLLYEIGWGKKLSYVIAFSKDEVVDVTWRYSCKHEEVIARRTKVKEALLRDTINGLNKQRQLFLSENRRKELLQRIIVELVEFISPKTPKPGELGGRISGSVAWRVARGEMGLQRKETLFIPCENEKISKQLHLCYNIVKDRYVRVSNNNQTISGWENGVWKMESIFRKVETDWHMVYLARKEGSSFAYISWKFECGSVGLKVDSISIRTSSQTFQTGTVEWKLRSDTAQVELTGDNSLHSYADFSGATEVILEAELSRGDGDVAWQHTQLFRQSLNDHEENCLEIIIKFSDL
B2: Protein FAM200C (Homo sapiens), Q8IZ13 (parent)
chain: MSKKRKWDDDYVRYWFTCTTEVDGTQRPQCVLCNSVFSNADLRPSKLSDHFNRQHGGVAGHDLNSLKHMPAPSDQSETLKAFGVASHEDTLLQASYQFAYLCAKEKNPHTVAEKLVKPCALEIAQIVLGPDAQKKLQQVPLSDDVIHSRIDEMSQDILQQVLEDIKASPLKVGIQLAETTDMDDCSQLMAFVRYIKEREIVEEFLFCEPLQLSMKGIDVFNLFRDFFLKHKIALDVCGSVCTDGASSMLGENSEFVAYVKKEIPHIVVTHCLLNPHALVIKTLPTKLRDALFTVVRVINFIKGRAPNHRLFQAFFEEIGIEYSVLLFHTEMRWLSRGQILTHIFEMYEEINQFLHHKSSNLVDGFENKEFKIHLAYLADLFKHLNELSASMQRTGMNTVSAREKLSAFVRKFPFWQKRIEKRNFTNFPFLEEIIVSDNEGIFIAAEITLHLQQLSNFFHGYFSIGDLNEASKWILDPFLFNIDFVDDSYLMKNDLAELRASGQILMEFETMKLEDFWCAQFTAFPNLAKTALEILMPFATTYLCELGFSSLLHFKTKSRSCFNLSDDIRVAISKKVPRFSDIIEQKLQLQQKSL
partner: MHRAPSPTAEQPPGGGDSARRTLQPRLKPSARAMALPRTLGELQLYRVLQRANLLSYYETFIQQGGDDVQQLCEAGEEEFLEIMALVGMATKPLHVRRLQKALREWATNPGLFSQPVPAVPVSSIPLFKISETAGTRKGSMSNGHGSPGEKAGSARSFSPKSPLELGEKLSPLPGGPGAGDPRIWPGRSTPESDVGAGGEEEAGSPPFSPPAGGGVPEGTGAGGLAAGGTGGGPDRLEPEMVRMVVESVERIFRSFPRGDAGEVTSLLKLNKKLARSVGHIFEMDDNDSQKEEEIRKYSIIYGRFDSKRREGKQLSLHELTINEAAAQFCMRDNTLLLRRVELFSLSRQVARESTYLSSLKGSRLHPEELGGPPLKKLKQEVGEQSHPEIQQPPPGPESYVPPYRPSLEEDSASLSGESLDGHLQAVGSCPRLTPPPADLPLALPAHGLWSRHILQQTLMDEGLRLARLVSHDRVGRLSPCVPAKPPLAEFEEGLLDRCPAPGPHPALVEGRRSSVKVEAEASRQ
B3: Adenosylhomocysteinase (Homo sapiens), P23526 (parent)
chain: MSDKLPYKVADIGLAAWGRKALDIAENEMPGLMRMRERYSASKPLKGARIAGCLHMTVETAVLIETLVTLGAEVQWSSCNIFSTQDHAAAAIAKAGIPVYAWKGETDEEYLWCIEQTLYFKDGPLNMILDDGGDLTNLIHTKYPQLLPGIRGISEETTTGVHNLYKMMANGILKVPAINVNDSVTKSKFDNLYGCRESLIDGIKRATDVMIAGKVAVVAGYGDVGKGCAQALRGFGARVIITEIDPINALQAAMEGYEVTTMDEACQEGNIFVTTTGCIDIILGRHFEQMKDDAIVCNIGHFDVEIDVKWLNENAVEKVNIKPQVDRYRLKNGRRIILLAEGRLVNLGCAMGHPSFVMSNSFTNQVMAQIELWTHPDKYPVGVHFLPKKLDEAVAEAHLGKLNVKLTKLTEKQAQYLGMSCDGPFKPDHYRY
B4: Zyxin (Homo sapiens), Q15942 (parent)
chain: MAAPRPSPAISVSVSAPAFYAPQKKFGPVVAPKPKVNPFRPGDSEPPPAPGAQRAQMGRVGEIPPPPPEDFPLPPPPLAGDGDDAEGALGGAFPPPPPPIEESFPPAPLEEEIFPSPPPPPEEEGGPEAPIPPPPQPREKVSSIDLEIDSLSSLLDDMTKNDPFKARVSSGYVPPPVATPFSSKSSTKPAAGGTAPLPPWKSPSSSQPLPQVPAPAQSQTQFHVQPQPQPKPQVQLHVQSQTQPVSLANTQPRGPPASSPAPAPKFSPVTPKFTPVASKFSPGAPGGSGSQPNQKLGHPEALSAGTGSPQPPSFTYAQQREKPRVQEKQHPVPPPAQNQNQVRSPGAPGPLTLKEVEELEQLTQQLMQDMEHPQRQNVAVNELCGRCHQPLARAQPAVRALGQLFHIACFTCHQCAQQLQGQQFYSLEGAPYCEGCYTDTLEKCNTCGEPITDRMLRATGKAYHPHCFTCVVCARPLEGTSFIVDQANRPHCVPDYHKQYAPRCSVCSEPIMPEPGRDETVRVVALDKNFHMKCYKCEDCGKPLSIEADDNGCFPLDGHVLCRKCHTARAQT
partner: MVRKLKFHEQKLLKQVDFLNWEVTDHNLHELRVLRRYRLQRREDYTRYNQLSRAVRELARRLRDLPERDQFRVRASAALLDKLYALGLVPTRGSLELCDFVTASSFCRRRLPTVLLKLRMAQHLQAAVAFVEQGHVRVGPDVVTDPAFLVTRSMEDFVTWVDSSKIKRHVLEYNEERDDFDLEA
B5: Isoform 1 of Myotubularin-related protein 9 (Homo sapiens), Q96QG7-1 (parent)
chain: MEFAELIKTPRVDNVVLHRPFYPAVEGTLCLTGHHLILSSRQDNTEELWLLHSNIDAIDKRFVGSLGTIIIKCKDFRIIQLDIPGMEECLNIASSIEALSTLDSITLMYPFFYRPMFEVIEDGWHSFLPEQEFELYSSATSEWRLSYVNKEFAVCPSYPPIVTVPKSIDDEALRKVATFRHGGRFPVLSYYHKKNGMVIMRSGQPLTGTNGRRCKEDEKLINATLRAGKRGYIIDTRSLNVAQQTRAKGGGFEQEAHYPQWRRIHKSIERYHILQESLIKLVEACNDQTHNMDRWLSKLEASNWLTHIKEILTTACLAAQCIDREGASILIHGTEGTDSTLQVTSLAQIILEPRSRTIRGFEALIEREWLQAGHPFQQRCAQSAYCNTKQKWEAPVFLLFLDCVWQILRQFPCSFEFNENFLIMLFEHAYASQFGTFLGNNESERCKLKLQQKTMSLWSWVNQPSELSKFTNPLFEANNLVIWPSVAPQSLPLWEGIFLRWNRSSKYLDEAYEEMVNIIEYNKELQAKVNILRRQLAELETEDGMQESP
partner: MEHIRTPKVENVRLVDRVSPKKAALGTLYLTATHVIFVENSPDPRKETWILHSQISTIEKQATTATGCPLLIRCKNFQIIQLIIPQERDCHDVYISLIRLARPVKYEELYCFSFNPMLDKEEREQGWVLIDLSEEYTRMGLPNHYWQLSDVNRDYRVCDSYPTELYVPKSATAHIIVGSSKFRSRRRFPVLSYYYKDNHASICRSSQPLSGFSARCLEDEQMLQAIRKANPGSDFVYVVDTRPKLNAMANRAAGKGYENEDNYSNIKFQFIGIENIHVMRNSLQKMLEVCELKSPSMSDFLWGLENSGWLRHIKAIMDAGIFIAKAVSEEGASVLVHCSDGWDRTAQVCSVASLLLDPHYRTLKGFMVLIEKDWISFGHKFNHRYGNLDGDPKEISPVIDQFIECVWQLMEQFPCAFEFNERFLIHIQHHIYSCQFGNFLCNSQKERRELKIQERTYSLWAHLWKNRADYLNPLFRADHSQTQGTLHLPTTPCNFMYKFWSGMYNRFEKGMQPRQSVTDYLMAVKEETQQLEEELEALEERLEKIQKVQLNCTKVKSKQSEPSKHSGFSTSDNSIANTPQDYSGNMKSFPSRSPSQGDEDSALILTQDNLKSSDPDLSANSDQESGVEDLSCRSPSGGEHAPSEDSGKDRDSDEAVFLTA
B6: Ligand of Numb protein X 2 (Homo sapiens), Q8N448 (parent)
chain: MGTTSDEMVSVEQTSSSSLNPLCFECGQQHWTRENHLYNYQNEVDDDLVCHICLQPLLQPLDTPCGHTFCYKCLRNFLQEKDFCPLDRKRLHFKLCKKSSILVHKLLDKLLVLCPFSSVCKDVMQRCDLEAHLKNRCPGASHRRVALERRKTSRTQAEIENENGPTLLDPAGTLSPEADCLGTGAVPVERHLTSASLSTWSEEPGLDNPAFEESAGADTTQQPLSLPEGEITTIEIHRSNPYIQLGISIVGGNETPLINIVIQEVYRDGVIARDGRLLAGDQILQVNNYNISNVSHNYARAVLSQPCNTLHLTVLRERRFGNRAHNHSDSNSPREEIFQVALHKRDSGEQLGIKLVRRTDEPGVFILDLLEGGLAAQDGRLSSNDRVLAINGHDLKYGTPELAAQIIQASGERVNLTIARPGKPQPGNTIREAGNHSSSSQHHTPPPYYSRPSSHKDLTQCVTCQEKHITVKKEPHESLGMTVAGGRGSKSGELPIFVTSVPPHGCLARDGRIKRGDVLLNINGIDLTNLSHSEAVAMLKASAASPAVALKALEVQIVEEATQNAEEQPSTFSENEYDASWSPSWVMWLGLPSTLHSCHDIVLRRSYLGSWGFSIVGGYEENHTNQPFFIKTIVLGTPAYYDGRLKCGDMIVAVNGLSTVGMSHSALVPMLKEQRNKVTLTVICWPGSLV
partner: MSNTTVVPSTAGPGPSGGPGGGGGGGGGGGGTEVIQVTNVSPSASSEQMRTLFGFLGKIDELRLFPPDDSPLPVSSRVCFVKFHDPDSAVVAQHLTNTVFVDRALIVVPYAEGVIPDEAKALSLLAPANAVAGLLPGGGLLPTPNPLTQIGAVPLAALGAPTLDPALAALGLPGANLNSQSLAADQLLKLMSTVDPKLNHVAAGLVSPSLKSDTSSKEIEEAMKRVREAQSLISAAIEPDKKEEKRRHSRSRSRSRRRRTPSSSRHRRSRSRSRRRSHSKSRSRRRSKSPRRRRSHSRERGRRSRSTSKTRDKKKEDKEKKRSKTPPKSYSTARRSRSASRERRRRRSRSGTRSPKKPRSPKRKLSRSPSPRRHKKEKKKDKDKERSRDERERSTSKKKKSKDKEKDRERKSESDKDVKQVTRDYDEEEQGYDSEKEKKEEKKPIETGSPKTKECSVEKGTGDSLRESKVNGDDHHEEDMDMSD
B7: Protein BEX5 (Homo sapiens), Q5H9J7 (parent)
chain: MENVPKENKVVEKAPVQNEAPALGGGEYQEPGGNVKGVWAPPAPGFGEDVPNRLVDNIDMIDGDGDDMERFMEEMRELRRKIRELQLRYSLRILIGDPPHHDHHDEFCLMP
partner: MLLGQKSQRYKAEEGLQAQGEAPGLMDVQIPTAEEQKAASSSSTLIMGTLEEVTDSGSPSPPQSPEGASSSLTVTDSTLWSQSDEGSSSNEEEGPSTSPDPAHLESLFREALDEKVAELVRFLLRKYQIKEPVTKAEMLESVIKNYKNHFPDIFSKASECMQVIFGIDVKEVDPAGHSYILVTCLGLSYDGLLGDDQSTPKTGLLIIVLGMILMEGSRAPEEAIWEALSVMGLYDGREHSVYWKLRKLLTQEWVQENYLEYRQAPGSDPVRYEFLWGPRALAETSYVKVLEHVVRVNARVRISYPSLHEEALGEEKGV

Variants of: B1
Conditions: with ngly1_human NGLY1, Q96IV0

Row | Variant | effect of a mutation on the interaction
1 | D109A | with no effect

Variants of: B2
Conditions: with nab2_human NAB2, Q15742

Row | Variant | effect of a mutation on the interaction
2 | M248K | with no effect
3 | A523S | with no effect

Variants of: B3
Conditions: with ca050_human C1orf50, Q9BV19
Chain of ca050_human C1orf50, Q9BV19 (Q9BV19 whole entry): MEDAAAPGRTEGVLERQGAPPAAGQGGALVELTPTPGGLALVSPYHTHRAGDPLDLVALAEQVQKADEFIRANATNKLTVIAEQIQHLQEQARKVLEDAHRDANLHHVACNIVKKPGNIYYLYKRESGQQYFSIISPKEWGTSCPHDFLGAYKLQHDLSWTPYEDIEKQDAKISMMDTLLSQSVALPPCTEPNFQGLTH

Row | Variant | effect of a mutation on the interaction
4 | I92V | with no effect

Variants of: B4
Conditions: with imp3_human IMP3, Q9NV31

Row | Variant | effect of a mutation on the interaction
5 | R489W | with no effect
6 | R563Q | with no effect

Variants of: B5
Conditions: with mtmr7_human MTMR7, Q9Y216

Row | Variant | effect of a mutation on the interaction
7 | F127I | with no effect

Variants of: B5
Conditions: with mtmr7_human MTMR7, Q9Y216
Remark: another data set of the same source

Row | Variant | effect of a mutation on the interaction
8 | S126C | with no effect

Variants of: B6
Conditions: with srs11_human SRSF11, Q05519

Row | Variant | effect of a mutation on the interaction
9 | S141A | with no effect
10 | S198P | with no effect
11 | Y266C | disrupting interaction strength

Variants of: B7
Conditions: with maga8_human MAGEA8, P43361

Row | Variant | effect of a mutation on the interaction
12 | E74D | with no effect
